Laboratory results as given in IntAct's records for PubMed 25416956.

B1: Inactive peptidyl-prolyl cis-trans isomerase FKBP6 (Homo sapiens), O75344 (parent)
chain: MGGSALNQGVLEGDDAPGQSLYERLSQRMLDISGDRGVLKDVIREGAGDLVAPDASVLVKYSGYLEHMDRPFDSNYFRKTPRLMKLGEDITLWGMELGLLSMRRGELARFLFKPNYAYGTLGCPPLIPPNTTVLFEIELLDFLDCAESDKFCALSAEQQDQFPLQKVLKVAATEREFGNYLFRQNRFYDAKVRYKRALLLLRRRSAPPEEQHLVEAAKLPVLLNLSFTYLKLDRPTIALCYGEQALIIDQKNAKALFRCGQACLLLTEYQKARDFLVRAQKEQPFNHDINNELKKLASCYRDYVDKEKEMWHRMFAPCGDGSTAGES
partner: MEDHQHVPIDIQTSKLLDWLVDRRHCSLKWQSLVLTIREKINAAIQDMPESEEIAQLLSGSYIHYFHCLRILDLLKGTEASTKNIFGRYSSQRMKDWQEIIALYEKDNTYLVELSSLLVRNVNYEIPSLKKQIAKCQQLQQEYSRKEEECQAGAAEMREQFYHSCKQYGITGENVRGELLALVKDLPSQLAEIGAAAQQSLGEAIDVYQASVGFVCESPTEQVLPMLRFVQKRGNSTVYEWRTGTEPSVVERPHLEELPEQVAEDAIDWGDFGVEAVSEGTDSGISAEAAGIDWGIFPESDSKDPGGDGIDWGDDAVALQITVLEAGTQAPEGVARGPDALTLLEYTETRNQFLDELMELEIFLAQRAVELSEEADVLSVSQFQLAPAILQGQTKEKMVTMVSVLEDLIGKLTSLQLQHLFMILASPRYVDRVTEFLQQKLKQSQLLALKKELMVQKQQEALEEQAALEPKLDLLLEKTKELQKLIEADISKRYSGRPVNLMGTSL
B2: Plakophilin-2 (Homo sapiens), Q99959 (parent)
chain: MAAPGAPAEYGYIRTVLGQQILGQLDSSSLALPSEAKLKLAGSSGRGGQTVKSLRIQEQVQQTLARKGRSSVGNGNLHRTSSVPEYVYNLHLVENDFVGGRSPVPKTYDMLKAGTTATYEGRWGRGTAQYSSQKSVEERSLRHPLRRLEISPDSSPERAHYTHSDYQYSQRSQAGHTLHHQESRRAALLVPPRYARSEIVGVSRAGTTSRQRHFDTYHRQYQHGSVSDTVFDSIPANPALLTYPRPGTSRSMGNLLEKENYLTAGLTVGQVRPLVPLQPVTQNRASRSSWHQSSFHSTRTLREAGPSVAVDSSGRRAHLTVGQAAAGGSGNLLTERSTFTDSQLGNADMEMTLERAVSMLEADHMLPSRISAAATFIQHECFQKSEARKRVNQLRGILKLLQLLKVQNEDVQRAVCGALRNLVFEDNDNKLEVAELNGVPRLLQVLKQTRDLETKKQITDHTVNLRSRNGWPGAVAHACNPSTLGGQGGRITRSGVRDQPDQHGLLWNLSSNDKLKNLMITEALLTLTENIIIPFSGWPEGDYPKANGLLDFDIFYNVTGCLRNMSSAGADGRKAMRRCDGLIDSLVHYVRGTIADYQPDDKATENCVCILHNLSYQLEAELPEKYSQNIYIQNRNIQTDNNKSIGCFGSRSRKVKEQYQDVPMPEEKSNPKGVEWLWHSIVIRMYLSLIAKSVRNYTQEASLGALQNLTAGSGPMPTSVAQTVVQKESGLQHTRKMLHVGDPSVKKTAISLLRNLSRNLSLQNEIAKETLPDLVSIIPDTVPSTDLLIETTASACYTLNNIIQNSYQNARDLLNTGGIQKIMAISAGDAYASNKASKAASVLLYSLWAHTELHHAYKKAQFKKTDFVNSRTAKAYHSLKD
partner: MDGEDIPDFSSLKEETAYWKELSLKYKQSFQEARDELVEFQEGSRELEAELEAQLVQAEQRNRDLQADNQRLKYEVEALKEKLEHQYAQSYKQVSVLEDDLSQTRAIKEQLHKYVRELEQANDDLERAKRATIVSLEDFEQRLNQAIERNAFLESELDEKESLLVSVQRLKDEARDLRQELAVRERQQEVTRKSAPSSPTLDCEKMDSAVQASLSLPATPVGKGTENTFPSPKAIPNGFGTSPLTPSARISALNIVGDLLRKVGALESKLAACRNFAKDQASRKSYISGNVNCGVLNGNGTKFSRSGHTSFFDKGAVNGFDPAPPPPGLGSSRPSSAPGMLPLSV
B3: Chorion-specific transcription factor GCMb (Homo sapiens), O75603 (parent)
chain: MPAAAVQEAVGVCSYGMQLSWDINDPQMPQELALFDQFREWPDGYVRFIYSSDEKKAQRHLSGWAMRNTNNHNGHILKKSCLGVVVCTQACTLPDGSRLQLRPAICDKARLKQQKKACPNCHSALELIPCRGHSGYPVTNFWRLDGNAIFFQAKGVHDHPRPESKSETEARRSAIKRQMASFYQPQKKRIRESEAEENQDSSGHFSNIPPLENPEDFDIVTETSFPIPGQPCPSFPKSDVYKATCDLATFQGDKMPPFQKYSSPRIYLPRPPCSYELANPGYTNSSPYPTLYKDSTSIPNDTDWVHLNTLQCNVNSYSSYERSFDFTNKQHGWKPALGKPSLVERTNHGQFQAMATRPYYNPELPCRYLTTPPPGAPALQTVITTTTKVSYQAYQPPAMKYSDSVREVKSLSSCNYAPEDTGMSVYPEPWGPPVTVTRAASPSGPPPMKIAGDCRAIRPTVAIPHEPVSSRTDEAETWDVCLSGLGSAVSYSDRVGPFFTYNNEDF
partner: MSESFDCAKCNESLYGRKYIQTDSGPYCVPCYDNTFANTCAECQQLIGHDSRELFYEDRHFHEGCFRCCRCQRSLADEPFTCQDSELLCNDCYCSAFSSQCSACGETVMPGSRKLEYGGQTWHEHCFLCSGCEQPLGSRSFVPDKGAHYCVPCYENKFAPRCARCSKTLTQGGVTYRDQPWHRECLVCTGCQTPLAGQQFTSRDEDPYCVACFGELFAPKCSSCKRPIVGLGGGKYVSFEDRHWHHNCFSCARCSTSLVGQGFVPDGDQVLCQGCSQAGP
B4: Proton-coupled zinc antiporter SLC30A8 (Homo sapiens), Q8IWU4 (parent)
chain: MEFLERTYLVNDKAAKMYAFTLESVELQQKPVNKDQCPRERPEELESGGMYHCHSGSKPTEKGANEYAYAKWKLCSASAICFIFMIAEVVGGHIAGSLAVVTDAAHLLIDLTSFLLSLFSLWLSSKPPSKRLTFGWHRAEILGALLSILCIWVVTGVLVYLACERLLYPDYQIQATVMIIVSSCAVAANIVLTVVLHQRCLGHNHKEVQANASVRAAFVHALGDLFQSISVLISALIIYFKPEYKIADPICTFIFSILVLASTITILKDFSILLMEGVPKSLNYSGVKELILAVDGVLSVHSLHIWSLTMNQVILSAHVATAASRDSQVVRREIAKALSKSFTMHSLTIQMESPVDQDPDCLFCEDPCD
partner: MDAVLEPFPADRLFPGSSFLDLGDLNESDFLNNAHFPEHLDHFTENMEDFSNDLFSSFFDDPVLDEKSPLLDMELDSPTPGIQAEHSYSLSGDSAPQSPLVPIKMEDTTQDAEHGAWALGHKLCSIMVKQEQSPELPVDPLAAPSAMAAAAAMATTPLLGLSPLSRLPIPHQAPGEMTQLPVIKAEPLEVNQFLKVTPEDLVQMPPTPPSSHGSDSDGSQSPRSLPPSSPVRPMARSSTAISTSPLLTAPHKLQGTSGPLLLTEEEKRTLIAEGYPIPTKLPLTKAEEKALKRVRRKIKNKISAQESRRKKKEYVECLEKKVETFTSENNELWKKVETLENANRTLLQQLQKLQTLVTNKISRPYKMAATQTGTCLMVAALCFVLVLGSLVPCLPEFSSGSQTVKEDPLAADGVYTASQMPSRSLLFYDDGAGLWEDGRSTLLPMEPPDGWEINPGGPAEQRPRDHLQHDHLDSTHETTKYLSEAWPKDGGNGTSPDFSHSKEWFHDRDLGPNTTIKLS
B5: Tumor necrosis factor receptor superfamily member 13B (Homo sapiens), O14836 (parent)
chain: MSGLGRSRRGGRSRVDQEERFPQGLWTGVAMRSCPEEQYWDPLLGTCMSCKTICNHQSQRTCAAFCRSLSCRKEQGKFYDHLLRDCISCASICGQHPKQCAYFCENKLRSPVNLPPELRRQRSGEVENNSDNSGRYQGLEHRGSEASPALPGLKLSADQVALVYSTLGLCLCAVLCCFLVAVACFLKKRGDPCSCQPRSRPRQSPAKSSQDHAMEAGSPVSTSPEPVETCSFCFPECRAPTQESAVTPGTPDPTCAGRWGCHTRTTVLQPCPHIPDSGLGIVCVPAQEGGPGA
B6: Serotonin N-acetyltransferase (Homo sapiens), Q16613 (parent)
chain: MSTQSTHPLKPEAPRLPPGIPESPSCQRRHTLPASEFRCLTPEDAVSAFEIEREAFISVLGVCPLYLDEIRHFLTLCPELSLGWFEEGCLVAFIIGSLWDKERLMQESLTLHRSGGHIAHLHVLAVHRAFRQQGRGPILLWRYLHHLGSQPAVRRAALMCEDALVPFYERFSFHAVGPCAITVGSLTFMELHCSLRGHPFLRRNSGC
B7: EF-hand domain-containing protein 1 (Homo sapiens), Q5JVL4 (parent)
chain: MVSNPVHGLPFLPGTSFKDSTKTAFHRSQTLSYRNGYAIVRRPTVGIGGDRLQFNQLSQAELDELASKAPVLTYGQPKQAPPADFIPAHVAFDKKVLKFDAYFQEDVPMSTEEQYRIRQVNIYYYLEDDSMSVIEPVVENSGILQGKLIKRQRLAKNDRGDHYHWKDLNRGINITIYGKTFRVVDCDQFTQVFLESQGIELNPPEKMALDPYTELRKQPLRKYVTPSDFDQLKQFLTFDKQVLRFYAIWDDTDSMYGECRTYIIHYYLMDDTVEIREVHERNDGRDPFPLLMNRQRVPKVLVENAKNFPQCVLEISDQEVLEWYTAKDFIVGKSLTILGRTFFIYDCDPFTRRYYKEKFGITDLPRIDVSKREPPPVKQELPPYNGFGLVEDSAQNCFALIPKAPKKDVIKMLVNDNKVLRYLAVLESPIPEDKDRRFVFSYFLATDMISIFEPPVRNSGIIGGKYLGRTKVVKPYSTVDNPVYYGPSDFFIGAVIEVFGHRFIILDTDEYVLKYMESNAAQYSPEALASIQNHVRKREAPAPEAESKQTEKDPGVQELEALIDTIQKQLKDHSCKDNIREAFQIYDKEASGYVDRDMFFKICESLNVPVDDSLVKELIRMCSHGEGKINYYNFVRAFSN
partner: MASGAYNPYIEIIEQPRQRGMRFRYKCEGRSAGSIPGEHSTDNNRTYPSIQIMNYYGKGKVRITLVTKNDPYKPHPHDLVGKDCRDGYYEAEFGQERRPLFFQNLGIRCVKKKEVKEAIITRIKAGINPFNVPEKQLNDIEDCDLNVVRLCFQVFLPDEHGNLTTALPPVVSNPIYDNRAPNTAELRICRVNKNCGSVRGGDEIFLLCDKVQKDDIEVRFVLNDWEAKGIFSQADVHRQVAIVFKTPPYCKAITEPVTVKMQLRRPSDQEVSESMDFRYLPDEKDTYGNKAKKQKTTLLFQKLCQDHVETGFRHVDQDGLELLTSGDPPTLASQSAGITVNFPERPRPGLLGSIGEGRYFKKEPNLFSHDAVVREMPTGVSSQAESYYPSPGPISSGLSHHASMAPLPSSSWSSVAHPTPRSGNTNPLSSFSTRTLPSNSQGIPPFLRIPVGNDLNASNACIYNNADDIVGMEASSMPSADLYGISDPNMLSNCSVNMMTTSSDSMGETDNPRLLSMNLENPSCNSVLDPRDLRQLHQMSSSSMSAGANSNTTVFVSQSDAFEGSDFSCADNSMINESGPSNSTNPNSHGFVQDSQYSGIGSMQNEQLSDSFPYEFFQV

Variants of: B1
Details: with ck5p3_human CDK5RAP3, Q96JB5

Row | effect of a mutation on the interaction | Variant
1 | disrupting interaction | F72L

Variants of: B2
Details: with ndel1_human NDEL1, Q9GZM8

Row | effect of a mutation on the interaction | Variant
2 | disrupting interaction | S644P

Variants of: B2
Details: with ndel1_human NDEL1, Q9GZM8
Remark: another data set of the same source

Row | effect of a mutation on the interaction | Variant
3 | disrupting interaction | S140F

Variants of: B3
Details: with fhl3_human FHL3, Q13643

Row | effect of a mutation on the interaction | Variant
4 | disrupting interaction | R47L

Variants of: B4
Details: with cr3l1_human CREB3L1, Q96BA8

Row | effect of a mutation on the interaction | Variant
5 | disrupting interaction | E276W

Variants of: B5
Details: with sgta_human SGTA

Row | effect of a mutation on the interaction | Variant
6 | disrupting interaction | E125R

Variants of: B6
Details: with bhe40_human BHLHE40, O14503
Sequence of bhe40_human BHLHE40, O14503 (O14503 whole entry): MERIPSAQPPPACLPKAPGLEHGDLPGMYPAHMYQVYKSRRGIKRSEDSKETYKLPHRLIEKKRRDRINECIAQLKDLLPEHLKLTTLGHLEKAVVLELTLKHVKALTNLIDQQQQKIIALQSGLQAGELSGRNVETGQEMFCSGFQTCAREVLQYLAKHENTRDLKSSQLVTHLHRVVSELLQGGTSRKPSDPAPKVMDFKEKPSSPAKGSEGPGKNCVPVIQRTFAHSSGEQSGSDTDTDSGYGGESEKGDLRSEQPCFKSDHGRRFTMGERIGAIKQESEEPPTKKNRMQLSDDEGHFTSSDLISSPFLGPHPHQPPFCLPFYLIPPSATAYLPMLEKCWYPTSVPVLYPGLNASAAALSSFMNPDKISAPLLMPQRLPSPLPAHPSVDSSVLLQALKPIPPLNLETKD

Row | effect of a mutation on the interaction | Variant
7 | disrupting interaction | A129T

Variants of: B7
Details: with rel_human REL

Row | effect of a mutation on the interaction | Variant
8 | disrupting interaction | A394S

Variants of: B7
Details: with rel_human REL
Remark: another data set of the same source

Row | effect of a mutation on the interaction | Variant
9 | disrupting interaction | P77T
